Our source for the binding result and Kd values is US20260317437 (published 2026).

First the molecules themselves.
B1: VH Y31W (antibody, V domains shown)
VH: EVQLVESGGGLVQPGGSLRLSCAASGFNIYWNYIHWVRQAPGKGLEWVAEFSPYSGSTYYADSVKGRFTISADTSKNTAYLQMNSLRAEDTAVYYCARSAAIVDWYDYFKGFDYWGQGTLVTVSS
VL: DIQMTQSPSSLSASVGDRVTITCRASQSVSSAVAWYQQKPGKAPKLLIYSASSLYSGVPSRFSGSRSGTDFTLTISSLQPEDFATYYCQQYGSYLYTFGQGTKVEIK
B2: VH Y31K (antibody, V domains shown)
VH: EVQLVESGGGLVQPGGSLRLSCAASGFNIYKNYIHWVRQAPGKGLEWVAEFSPYSGSTYYADSVKGRFTISADTSKNTAYLQMNSLRAEDTAVYYCARSAAIVDWYDYFKGFDYWGQGTLVTVSS
VL: DIQMTQSPSSLSASVGDRVTITCRASQSVSSAVAWYQQKPGKAPKLLIYSASSLYSGVPSRFSGSRSGTDFTLTISSLQPEDFATYYCQQYGSYLYTFGQGTKVEIK
B3: VH Y31S (antibody, V domains shown)
VH: EVQLVESGGGLVQPGGSLRLSCAASGFNIYSNYIHWVRQAPGKGLEWVAEFSPYSGSTYYADSVKGRFTISADTSKNTAYLQMNSLRAEDTAVYYCARSAAIVDWYDYFKGFDYWGQGTLVTVSS
VL: DIQMTQSPSSLSASVGDRVTITCRASQSVSSAVAWYQQKPGKAPKLLIYSASSLYSGVPSRFSGSRSGTDFTLTISSLQPEDFATYYCQQYGSYLYTFGQGTKVEIK
B4: VH Y31E (antibody, V domains shown)
VH: EVQLVESGGGLVQPGGSLRLSCAASGFNIYENYIHWVRQAPGKGLEWVAEFSPYSGSTYYADSVKGRFTISADTSKNTAYLQMNSLRAEDTAVYYCARSAAIVDWYDYFKGFDYWGQGTLVTVSS
VL: DIQMTQSPSSLSASVGDRVTITCRASQSVSSAVAWYQQKPGKAPKLLIYSASSLYSGVPSRFSGSRSGTDFTLTISSLQPEDFATYYCQQYGSYLYTFGQGTKVEIK
B5: VH Y31R (antibody, V domains shown)
VH: EVQLVESGGGLVQPGGSLRLSCAASGFNIYRNYIHWVRQAPGKGLEWVAEFSPYSGSTYYADSVKGRFTISADTSKNTAYLQMNSLRAEDTAVYYCARSAAIVDWYDYFKGFDYWGQGTLVTVSS
VL: DIQMTQSPSSLSASVGDRVTITCRASQSVSSAVAWYQQKPGKAPKLLIYSASSLYSGVPSRFSGSRSGTDFTLTISSLQPEDFATYYCQQYGSYLYTFGQGTKVEIK
B6: VH Y31D (antibody, V domains shown)
VH: EVQLVESGGGLVQPGGSLRLSCAASGFNIYDNYIHWVRQAPGKGLEWVAEFSPYSGSTYYADSVKGRFTISADTSKNTAYLQMNSLRAEDTAVYYCARSAAIVDWYDYFKGFDYWGQGTLVTVSS
VL: DIQMTQSPSSLSASVGDRVTITCRASQSVSSAVAWYQQKPGKAPKLLIYSASSLYSGVPSRFSGSRSGTDFTLTISSLQPEDFATYYCQQYGSYLYTFGQGTKVEIK
B7: VH Y31N (antibody, V domains shown)
VH: EVQLVESGGGLVQPGGSLRLSCAASGFNIYNNYIHWVRQAPGKGLEWVAEFSPYSGSTYYADSVKGRFTISADTSKNTAYLQMNSLRAEDTAVYYCARSAAIVDWYDYFKGFDYWGQGTLVTVSS
VL: DIQMTQSPSSLSASVGDRVTITCRASQSVSSAVAWYQQKPGKAPKLLIYSASSLYSGVPSRFSGSRSGTDFTLTISSLQPEDFATYYCQQYGSYLYTFGQGTKVEIK
B8: VH W100aR (antibody, V domains shown)
VH: EVQLVESGGGLVQPGGSLRLSCAASGFNIYYNYIHWVRQAPGKGLEWVAEFSPYSGSTYYADSVKGRFTISADTSKNTAYLQMNSLRAEDTAVYYCARSAAIVDRYDYFKGFDYWGQGTLVTVSS
VL: DIQMTQSPSSLSASVGDRVTITCRASQSVSSAVAWYQQKPGKAPKLLIYSASSLYSGVPSRFSGSRSGTDFTLTISSLQPEDFATYYCQQYGSYLYTFGQGTKVEIK
B9: VH Y31I (antibody, V domains shown)
VH: EVQLVESGGGLVQPGGSLRLSCAASGFNIYINYIHWVRQAPGKGLEWVAEFSPYSGSTYYADSVKGRFTISADTSKNTAYLQMNSLRAEDTAVYYCARSAAIVDWYDYFKGFDYWGQGTLVTVSS
VL: DIQMTQSPSSLSASVGDRVTITCRASQSVSSAVAWYQQKPGKAPKLLIYSASSLYSGVPSRFSGSRSGTDFTLTISSLQPEDFATYYCQQYGSYLYTFGQGTKVEIK
B10: VL Y94T (antibody, V domains shown)
VH: EVQLVESGGGLVQPGGSLRLSCAASGFNIYYNYIHWVRQAPGKGLEWVAEFSPYSGSTYYADSVKGRFTISADTSKNTAYLQMNSLRAEDTAVYYCARSAAIVDWYDYFKGFDYWGQGTLVTVSS
VL: DIQMTQSPSSLSASVGDRVTITCRASQSVSSAVAWYQQKPGKAPKLLIYSASSLYSGVPSRFSGSRSGTDFTLTISSLQPEDFATYYCQQYGSTLYTFGQGTKVEIK
B11: VL S93V (antibody, V domains shown)
VH: EVQLVESGGGLVQPGGSLRLSCAASGFNIYYNYIHWVRQAPGKGLEWVAEFSPYSGSTYYADSVKGRFTISADTSKNTAYLQMNSLRAEDTAVYYCARSAAIVDWYDYFKGFDYWGQGTLVTVSS
VL: DIQMTQSPSSLSASVGDRVTITCRASQSVSSAVAWYQQKPGKAPKLLIYSASSLYSGVPSRFSGSRSGTDFTLTISSLQPEDFATYYCQQYGVYLYTFGQGTKVEIK
B12: VH Y30N (antibody, V domains shown)
VH: EVQLVESGGGLVQPGGSLRLSCAASGFNINYNYIHWVRQAPGKGLEWVAEFSPYSGSTYYADSVKGRFTISADTSKNTAYLQMNSLRAEDTAVYYCARSAAIVDWYDYFKGFDYWGQGTLVTVSS
VL: DIQMTQSPSSLSASVGDRVTITCRASQSVSSAVAWYQQKPGKAPKLLIYSASSLYSGVPSRFSGSRSGTDFTLTISSLQPEDFATYYCQQYGSYLYTFGQGTKVEIK
B13: VH S54R (antibody, V domains shown)
VH: EVQLVESGGGLVQPGGSLRLSCAASGFNIYYNYIHWVRQAPGKGLEWVAEFSPYRGSTYYADSVKGRFTISADTSKNTAYLQMNSLRAEDTAVYYCARSAAIVDWYDYFKGFDYWGQGTLVTVSS
VL: DIQMTQSPSSLSASVGDRVTITCRASQSVSSAVAWYQQKPGKAPKLLIYSASSLYSGVPSRFSGSRSGTDFTLTISSLQPEDFATYYCQQYGSYLYTFGQGTKVEIK
B14: VH Y30E (antibody, V domains shown)
VH: EVQLVESGGGLVQPGGSLRLSCAASGFNIEYNYIHWVRQAPGKGLEWVAEFSPYSGSTYYADSVKGRFTISADTSKNTAYLQMNSLRAEDTAVYYCARSAAIVDWYDYFKGFDYWGQGTLVTVSS
VL: DIQMTQSPSSLSASVGDRVTITCRASQSVSSAVAWYQQKPGKAPKLLIYSASSLYSGVPSRFSGSRSGTDFTLTISSLQPEDFATYYCQQYGSYLYTFGQGTKVEIK
B15: VH W100aH (antibody, V domains shown)
VH: EVQLVESGGGLVQPGGSLRLSCAASGFNIYYNYIHWVRQAPGKGLEWVAEFSPYSGSTYYADSVKGRFTISADTSKNTAYLQMNSLRAEDTAVYYCARSAAIVDHYDYFKGFDYWGQGTLVTVSS
VL: DIQMTQSPSSLSASVGDRVTITCRASQSVSSAVAWYQQKPGKAPKLLIYSASSLYSGVPSRFSGSRSGTDFTLTISSLQPEDFATYYCQQYGSYLYTFGQGTKVEIK
B16: VL Y94A (antibody, V domains shown)
VH: EVQLVESGGGLVQPGGSLRLSCAASGFNIYYNYIHWVRQAPGKGLEWVAEFSPYSGSTYYADSVKGRFTISADTSKNTAYLQMNSLRAEDTAVYYCARSAAIVDWYDYFKGFDYWGQGTLVTVSS
VL: DIQMTQSPSSLSASVGDRVTITCRASQSVSSAVAWYQQKPGKAPKLLIYSASSLYSGVPSRFSGSRSGTDFTLTISSLQPEDFATYYCQQYGSALYTFGQGTKVEIK
B17: VL Y91T (antibody, V domains shown)
VH: EVQLVESGGGLVQPGGSLRLSCAASGFNIYYNYIHWVRQAPGKGLEWVAEFSPYSGSTYYADSVKGRFTISADTSKNTAYLQMNSLRAEDTAVYYCARSAAIVDWYDYFKGFDYWGQGTLVTVSS
VL: DIQMTQSPSSLSASVGDRVTITCRASQSVSSAVAWYQQKPGKAPKLLIYSASSLYSGVPSRFSGSRSGTDFTLTISSLQPEDFATYYCQQTGSYLYTFGQGTKVEIK
B18: VL Y94N (antibody, V domains shown)
VH: EVQLVESGGGLVQPGGSLRLSCAASGFNIYYNYIHWVRQAPGKGLEWVAEFSPYSGSTYYADSVKGRFTISADTSKNTAYLQMNSLRAEDTAVYYCARSAAIVDWYDYFKGFDYWGQGTLVTVSS
VL: DIQMTQSPSSLSASVGDRVTITCRASQSVSSAVAWYQQKPGKAPKLLIYSASSLYSGVPSRFSGSRSGTDFTLTISSLQPEDFATYYCQQYGSNLYTFGQGTKVEIK
B19: VL Y91D (antibody, V domains shown)
VH: EVQLVESGGGLVQPGGSLRLSCAASGFNIYYNYIHWVRQAPGKGLEWVAEFSPYSGSTYYADSVKGRFTISADTSKNTAYLQMNSLRAEDTAVYYCARSAAIVDWYDYFKGFDYWGQGTLVTVSS
VL: DIQMTQSPSSLSASVGDRVTITCRASQSVSSAVAWYQQKPGKAPKLLIYSASSLYSGVPSRFSGSRSGTDFTLTISSLQPEDFATYYCQQDGSYLYTFGQGTKVEIK
B20: VH Y31H (antibody, V domains shown)
VH: EVQLVESGGGLVQPGGSLRLSCAASGFNIYHNYIHWVRQAPGKGLEWVAEFSPYSGSTYYADSVKGRFTISADTSKNTAYLQMNSLRAEDTAVYYCARSAAIVDWYDYFKGFDYWGQGTLVTVSS
VL: DIQMTQSPSSLSASVGDRVTITCRASQSVSSAVAWYQQKPGKAPKLLIYSASSLYSGVPSRFSGSRSGTDFTLTISSLQPEDFATYYCQQYGSYLYTFGQGTKVEIK
B21: VL Y91H (antibody, V domains shown)
VH: EVQLVESGGGLVQPGGSLRLSCAASGFNIYYNYIHWVRQAPGKGLEWVAEFSPYSGSTYYADSVKGRFTISADTSKNTAYLQMNSLRAEDTAVYYCARSAAIVDWYDYFKGFDYWGQGTLVTVSS
VL: DIQMTQSPSSLSASVGDRVTITCRASQSVSSAVAWYQQKPGKAPKLLIYSASSLYSGVPSRFSGSRSGTDFTLTISSLQPEDFATYYCQQHGSYLYTFGQGTKVEIK

The first assay deals with T1, GCGR extracellular domain (human, UniProt P47871). The assay can be described thus: SPR. For orientation: In SPR one partner is held on a chip, and binding of the other changes the refractive index at the surface.
T1 sequence (P47871 26-477): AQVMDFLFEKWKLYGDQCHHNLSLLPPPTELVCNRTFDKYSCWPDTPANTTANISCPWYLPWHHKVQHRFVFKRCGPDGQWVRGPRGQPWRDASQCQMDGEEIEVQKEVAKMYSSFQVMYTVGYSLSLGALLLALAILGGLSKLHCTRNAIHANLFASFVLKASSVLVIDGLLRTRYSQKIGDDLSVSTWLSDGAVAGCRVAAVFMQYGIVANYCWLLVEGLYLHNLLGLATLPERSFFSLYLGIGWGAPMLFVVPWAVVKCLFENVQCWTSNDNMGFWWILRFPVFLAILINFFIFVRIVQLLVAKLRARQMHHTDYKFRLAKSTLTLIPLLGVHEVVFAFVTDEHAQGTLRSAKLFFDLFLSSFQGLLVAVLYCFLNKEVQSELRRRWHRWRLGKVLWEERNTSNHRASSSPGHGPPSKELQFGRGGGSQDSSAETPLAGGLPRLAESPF
Regarding B1, the binding result is given as “no binding”.

Take B2: the binding result is given as “no binding”.

In the case of B3, the binding result was “no binding”. Turning to B4, the binding result is recorded as “no binding”. Take B5: the binding result was “no binding”. With B6, the binding result is given as “no binding”. Same read-out and setting: for B7 the value was “no binding”; for B8, “no binding”; for B9, “no binding”.

In the next assay the target is T1, GCGR extracellular domain. As to the kind of experiment: SPR. This is another data set of the same source.
B10 registered a Kd of 2.71 nM. That is a single-digit nanomolar value. The molecule B11 gave a Kd of 1.74 nM. Consider B12, for which binding was put at a Kd of 103 nM. The molecule B13 came in with a Kd of 16 nM. B14 showed a Kd of 45.1 nM. This Kd lies about 2.8-fold higher than the previous one.

Molecule B15 gave a dissociation constant (Kd) of 41.7 nM. The Kd values of the last two molecules are within 1.5-fold of each other. The same measure, in the same setting: for B16 the value was 2.64 nM; for B17, 2.42 nM. Take B18: the Kd was 1.84 nM. The molecule B19 registered a dissociation constant (Kd) of 7.08 nM. B20 registered a Kd of 17.5 nM. This Kd is about 2.5-fold higher than that of the molecule before. The molecule B21 returned a Kd of 2.82 nM.

By Kd is commonly meant a measure of binding affinity in units of concentration. Read a high Kd as weaker binding.
